Blank lines part the entries; values can stand above or below the binder they belong to.
Tests used:
Experiment in all cases: two-hybrid library CCNG1;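 also: natural log of median RNA to DNA barcode read ratio; higher means stronger binding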
4H1446-bA = target: T1, 4H1446-bA
T1 chain: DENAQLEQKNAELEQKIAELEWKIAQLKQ

4H1828-bA = target: T2, 4H1828-bA
T2 chain: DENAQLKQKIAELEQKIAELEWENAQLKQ

4H1845-bA = target: T3, 4H1845-bA
T3 chain: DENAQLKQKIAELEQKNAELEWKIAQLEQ

4H2442-bA = target: T4, 4H2442-bA
T4 chain: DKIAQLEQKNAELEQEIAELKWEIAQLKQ

4H2576-bA = target: T5, 4H2576-bA
T5 chain: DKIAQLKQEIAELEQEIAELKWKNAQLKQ

4H2610-bA = target: T6, 4H2610-bA
T6 chain: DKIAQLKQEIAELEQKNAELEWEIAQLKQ

4H2618-bA = target: T7, 4H2618-bA
T7 chain: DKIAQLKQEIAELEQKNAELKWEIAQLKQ

4H2667-bA = target: T8, 4H2667-bA
T8 chain: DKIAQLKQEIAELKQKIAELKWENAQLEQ

4H2697-bA = target: T9, 4H2697-bA
T9 chain: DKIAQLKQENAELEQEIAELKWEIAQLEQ

4H2729-bA = target: T10, 4H2729-bA
T10 chain: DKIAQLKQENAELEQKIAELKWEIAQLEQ

4H3112-bA = target: T11, 4H3112-bA
T11 chain: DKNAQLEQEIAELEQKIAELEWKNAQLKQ

4H3185-bA = target: T12, 4H3185-bA
T12 chain: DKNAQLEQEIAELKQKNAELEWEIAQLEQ

4H3189-bA = target: T13, 4H3189-bA
T13 chain: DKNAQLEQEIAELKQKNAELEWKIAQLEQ

4H331-bA = target: T14, 4H331-bA
T14 chain: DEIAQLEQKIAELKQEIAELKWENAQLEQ

4H3354-bA = target: T15, 4H3354-bA
T15 chain: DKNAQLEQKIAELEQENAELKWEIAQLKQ

4H338-bA = target: T16, 4H338-bA
T16 chain: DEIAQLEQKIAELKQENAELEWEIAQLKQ

4H3427-bA = target: T17, 4H3427-bA
T17 chain: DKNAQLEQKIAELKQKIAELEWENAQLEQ

4H3606-bA = target: T18, 4H3606-bA
T18 chain: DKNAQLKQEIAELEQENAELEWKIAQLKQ

4H370-bA = target: T19, 4H370-bA
T19 chain: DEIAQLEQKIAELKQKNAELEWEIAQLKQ

4H3782-bA = target: T20, 4H3782-bA
T20 chain: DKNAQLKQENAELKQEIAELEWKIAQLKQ

4H3843-bA = target: T21, 4H3843-bA
T21 chain: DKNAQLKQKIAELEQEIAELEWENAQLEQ

4H3855-bA = target: T22, 4H3855-bA
T22 chain: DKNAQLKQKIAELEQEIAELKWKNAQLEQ

4H4001-bA = target: T23, 4H4001-bA
T23 chain: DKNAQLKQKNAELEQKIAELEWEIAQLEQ

4H454-bA = target: T24, 4H454-bA
T24 chain: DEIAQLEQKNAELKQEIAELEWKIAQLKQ

4H462-bA = target: T25, 4H462-bA
T25 chain: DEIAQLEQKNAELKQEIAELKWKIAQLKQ

4H568-bA = target: T26, 4H568-bA
T26 chain: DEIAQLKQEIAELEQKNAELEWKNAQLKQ

4H607-bA = target: T27, 4H607-bA
T27 chain: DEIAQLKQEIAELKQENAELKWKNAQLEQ

4H687-bA = target: T28, 4H687-bA
T28 chain: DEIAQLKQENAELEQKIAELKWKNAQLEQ

4H717-bA = target: T29, 4H717-bA
T29 chain: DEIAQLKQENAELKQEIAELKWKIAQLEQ

4H72-bA = target: T30, 4H72-bA
T30 chain: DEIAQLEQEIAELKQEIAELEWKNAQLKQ

4H754-bA = target: T31, 4H754-bA
T31 chain: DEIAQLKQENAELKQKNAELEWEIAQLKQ

4H797-bA = target: T32, 4H797-bA
T32 chain: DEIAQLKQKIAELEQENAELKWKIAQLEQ

4H883-bA = target: T33, 4H883-bA
T33 chain: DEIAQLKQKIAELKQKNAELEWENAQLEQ

4H908-bA = target: T34, 4H908-bA
T34 chain: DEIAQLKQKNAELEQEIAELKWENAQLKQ

4H918-bA = target: T35, 4H918-bA
T35 chain: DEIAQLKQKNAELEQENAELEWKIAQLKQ

4H953-bA = target: T36, 4H953-bA
T36 chain: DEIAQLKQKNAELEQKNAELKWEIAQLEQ

4H967-bA = target: T37, 4H967-bA
T37 chain: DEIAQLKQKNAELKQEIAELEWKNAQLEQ

4H2162-bH = target: T38, 4H2162-bH
T38 chain: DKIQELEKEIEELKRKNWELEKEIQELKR

4H2233-bH = target: T39, 4H2233-bH
T39 chain: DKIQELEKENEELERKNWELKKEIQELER

4H2253-bH = target: T40, 4H2253-bH
T40 chain: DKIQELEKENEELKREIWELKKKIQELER

4H235-bH = target: T41, 4H235-bH
T41 chain: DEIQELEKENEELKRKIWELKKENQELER

4H2444-bH = target: T42, 4H2444-bH
T42 chain: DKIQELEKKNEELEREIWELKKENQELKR

4H2518-bH = target: T43, 4H2518-bH
T43 chain: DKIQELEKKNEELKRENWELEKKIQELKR

4H2585-bH = target: T44, 4H2585-bH
T44 chain: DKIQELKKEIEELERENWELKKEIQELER

4H264-bA = target: T45, 4H264-bA
T45 chain: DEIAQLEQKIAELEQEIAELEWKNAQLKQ

4H264-bH = target: T46, 4H264-bH
T46 chain: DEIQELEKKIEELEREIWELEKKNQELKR

4H2760-bH = target: T47, 4H2760-bH
T47 chain: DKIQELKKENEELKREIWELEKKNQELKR

4H2859-bH = target: T48, 4H2859-bH
T48 chain: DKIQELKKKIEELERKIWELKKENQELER

4H2931-bH = target: T49, 4H2931-bH
T49 chain: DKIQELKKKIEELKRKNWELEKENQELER

4H3041-bH = target: T50, 4H3041-bH
T50 chain: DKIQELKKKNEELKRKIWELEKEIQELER

4H3297-bH = target: T51, 4H3297-bH
T51 chain: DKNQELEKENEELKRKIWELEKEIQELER

4H3364-bH = target: T52, 4H3364-bH
T52 chain: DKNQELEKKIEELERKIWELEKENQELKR

4H3381-bH = target: T53, 4H3381-bH
T53 chain: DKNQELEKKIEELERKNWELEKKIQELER

4H349-bH = target: T54, 4H349-bH
T54 chain: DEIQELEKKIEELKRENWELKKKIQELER

4H56-bH = target: T55, 4H56-bH
T55 chain: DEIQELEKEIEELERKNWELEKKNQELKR

4H730-bH = target: T56, 4H730-bH
T56 chain: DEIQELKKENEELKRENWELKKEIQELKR

4H796-bH = target: T57, 4H796-bH
T57 chain: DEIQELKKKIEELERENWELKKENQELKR

4H932-bH = target: T58, 4H932-bH
T58 chain: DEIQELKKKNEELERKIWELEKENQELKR

4H949-bH = target: T59, 4H949-bH
T59 chain: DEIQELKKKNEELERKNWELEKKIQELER

4H348-bA = target: T60, 4H348-bA
T60 chain: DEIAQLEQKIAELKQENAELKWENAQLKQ

4H492-bN = target: T61, 4H492-bN
T61 chain: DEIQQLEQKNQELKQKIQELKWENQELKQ

P9A-bH = target: T62, P9A-bH
T62 chain: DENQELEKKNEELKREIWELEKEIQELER

- interaction score (4H1446-bA): 0.569
- interaction score (4H1828-bA): -0.523
- interaction score (4H1845-bA): -0.389
- interaction score (4H2442-bA): -1.04
- interaction score (4H2576-bA): 1.12
- interaction score (4H2610-bA): -0.647
- interaction score (4H2618-bA): 0.00602
- interaction score (4H2667-bA): 0.0853
- interaction score (4H2697-bA): -0.0949
- interaction score (4H2729-bA): 1.08
- interaction score (4H3112-bA): 0.505
- interaction score (4H3185-bA): -0.0587
- interaction score (4H3189-bA): -0.621
- interaction score (4H331-bA): 1.79
- interaction score (4H3354-bA): -0.413
- interaction score (4H338-bA): -0.241
- interaction score (4H3427-bA): 0.256
- interaction score (4H3606-bA): 0.144
- interaction score (4H370-bA): 0.183
- interaction score (4H3782-bA): 0.586
- interaction score (4H3843-bA): 2.01
- interaction score (4H3855-bA): 0.209
- interaction score (4H4001-bA): 1.86
- interaction score (4H454-bA): -0.131
- interaction score (4H462-bA): -0.194
- interaction score (4H568-bA): -0.418
- interaction score (4H607-bA): -0.535
- interaction score (4H687-bA): -0.607
- interaction score (4H717-bA): -0.295
- interaction score (4H72-bA): 1.16
- interaction score (4H754-bA): -0.817
- interaction score (4H797-bA): -1.42
- interaction score (4H883-bA): 0.0122
- interaction score (4H908-bA): -0.405
- interaction score (4H918-bA): -0.0235
- interaction score (4H953-bA): -0.416
- interaction score (4H967-bA): -0.635
Binder: DENAQLEQKNAELEQKIAELEWKIAQLKQ [4H1446-bA]

- interaction score (4H2162-bH): 0.161
- interaction score (4H2233-bH): 0.284
- interaction score (4H2253-bH): -0.234
- interaction score (4H235-bH): 0.377
- interaction score (4H2444-bH): 0.28
- interaction score (4H2518-bH): 1
- interaction score (4H2585-bH): 0.942
- interaction score (4H264-bA): 0.1
- interaction score (4H264-bH): 0.0138
- interaction score (4H2760-bH): 0.202
- interaction score (4H2859-bH): 0.783
- interaction score (4H2931-bH): 0.798
- interaction score (4H3041-bH): 0.641
- interaction score (4H3297-bH): 0.0958
- interaction score (4H3364-bH): 0.498
- interaction score (4H3381-bH): 0.0641
- interaction score (4H349-bH): 0.54
- interaction score (4H56-bH): 0.668
- interaction score (4H730-bH): -1.99
- interaction score (4H796-bH): -0.188
- interaction score (4H932-bH): -0.531
- interaction score (4H949-bH): -1.64
Binder: DKIQELEKEIEELKRKNWELEKEIQELKR [4H2162-bH]

- interaction score (4H1828-bA): 0.663
- interaction score (4H1845-bA): -0.511
- interaction score (4H2442-bA): 0.499
- interaction score (4H2576-bA): 0.0647
- interaction score (4H2618-bA): 0.132
- interaction score (4H2667-bA): 0.0606
- interaction score (4H2729-bA): -0.137
- interaction score (4H3112-bA): 1.15
- interaction score (4H3185-bA): -0.351
- interaction score (4H331-bA): -0.739
- interaction score (4H3354-bA): 0.0682
- interaction score (4H338-bA): -1.89
- interaction score (4H3427-bA): 0.974
- interaction score (4H348-bA): -0.144
- interaction score (4H3782-bA): 0.85
- interaction score (4H3855-bA): -0.259
- interaction score (4H4001-bA): -0.562
- interaction score (4H454-bA): -1.06
- interaction score (4H492-bN): -2.71
- interaction score (4H568-bA): 0.727
- interaction score (4H607-bA): -0.523
- interaction score (4H687-bA): -0.0353
- interaction score (4H717-bA): -1.09
- interaction score (4H72-bA): -0.902
- interaction score (4H754-bA): -1.2
- interaction score (4H797-bA): -0.153
- interaction score (4H883-bA): -0.928
- interaction score (4H908-bA): -0.276
- interaction score (4H918-bA): -0.412
- interaction score (4H953-bA): -0.126
- interaction score (4H967-bA): -0.0426
- interaction score (P9A-bH): 0.475
Binder: DENAQLKQKIAELEQKIAELEWENAQLKQ [4H1828-bA]
